Measurements: patent US20260034233A1

Target: Cyno Gal-3 (Macaca fascicularis)
Assay: SPR; kinetic fit, which the text calls poor for the monkey sample; immobilised partner and concentrations not given

Kd: 64.1 nM
B1: SIF001 (antibody, V domains shown)
VH: QVQLVQSGSELKKPGASVKVSCKASGYTFTNYGMNWVRQAPGQGLEWMGWINTYTGEPTYADDFKGRFVFSLDTSVSTAYLQISSLKNEDMAVYFCARYAMDYWGQGTLVTVSS
VL: EAVVTQEPSLTVSPGGTVTLTCRSSTGAVTTSNYANWVQQKPGQAFTGLIGGTSNRAPGTPARFSGSLLGDKAALTLLGAQPEDEAEYFCALWYSTHYVFGGGTKLTVL
